B1: LEPBIa_1872 Mut (GGA to AAA) (structured_RNA)
RNA: UGGACACACAAAAGGGUGUGAC
B2: LEPBIa_1872 WT (flaB3 upstream) (structured_RNA)
RNA: UGGACACACAGGAGGGUGUGAC

What was measured:
rCsrA L. biflexa [1] = biological target: T1, rCsrA L. biflexa (Leptospira biflexa serovar Patoc, UniProt B0SQM8 1-79); assay: EMSA; no interaction, 100-800 nM rCsrA, 1 nM RNA; 10 mM HEPES pH 7.3, 20 mM KCl, 1 mM MgCl2, 1 mM DTT (plus 10 mM DTT), 7.5% glycerol, 0.2 ug/uL yeast tRNA, 37 C 30 min; 10% native PAGE; settings: protein: recombinant; tags: N-terminal 6xHis (pRSET-C); chain copies: 2; label: 5' biotin
T1 sequence: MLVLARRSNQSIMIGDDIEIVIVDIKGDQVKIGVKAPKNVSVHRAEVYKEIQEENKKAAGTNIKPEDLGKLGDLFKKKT

rCsrA L. biflexa [2] = biological target: T1, rCsrA L. biflexa; assay: EMSA; dose-dependent, 100-800 nM rCsrA, 1 nM RNA; 10 mM HEPES pH 7.3, 20 mM KCl, 1 mM MgCl2, 1 mM DTT (plus 10 mM DTT), 7.5% glycerol, 0.2 ug/uL yeast tRNA, 37 C 30 min; 10% native PAGE; settings: protein: recombinant; tags: N-terminal 6xHis (pRSET-C); chain copies: 2; label: 5' biotin; hairpin (predicted, GGA-containing hexaloop)

Row | Binder | binding result (rCsrA L. biflexa [1]) | binding result (rCsrA L. biflexa [2])
1 | B1 | no binding | 
2 | B2 |  | binds

From article PMC8668096, “Investigating the role of the carbon storage regulator A (CsrA) in Leptospira spp”
